B1: PRO3696, scFv (VL-linker-VH) 69-01-E02-sc06_(VL_A67G_S68G; VH_T101S_L146K) (scFv)
scFv: DVQMTQSPSSLSASVGDRVTITCQASQSIGLNLAWYQQKPGKPPKLLIYAGGYLASGVSSRFSGSGSGTDFTLTISSLQPEDFATYYCQSTYDGSSFVFAFGTGTKVTVLGGGGGSGGGGSGGGGSGGGGSQEQLVESGGGLVQPGGSLRLSCAASGFSFSSSSYMCWVRQAPGKGLEWIACMVTGSSDDTDYASWAKGRFTISKDNSKNTVYLQMNSLRAEDSAVYFCARAGSAPLWGQGTLVKVSS
B2: PRO3697, scFv (VL-linker-VH) 69-06-G04-sc05_(VL_A67G_S68G; VH_T101S_L146K) (scFv)
scFv: AFQLTQSPSSLSASVGDRVTITCQASQSIGTYLAWYQQKPGKPPKLLIYRGGTLASGVPSRFSGSGSGTDFTLTISSLQPEDFATYYCQSYDSSNTFGTGTKVTVLGGGGGSGGGGSGGGGSGGGGSQEQLVESGGGLVQPGRSLRLSCAASGFDLSADYMCWVRQAPGKGLEWIACIYIDDDNTYYATWAKGRFTISKDNSKNTVYLQMNSLRAEDSAVYFCARGYGVYTGAITYFTLWGQGTLVKVSS
B3: PRO3744, scFv (VL-linker-VH) 68-18-E11-sc07_(VL_A67G_S68G_T141C; VH_G51C_T101S_T146K) (scFv)
scFv: DVQMTQSPSSLSASVGDRVTITCQASQSIGSNLAWYQQKPGKPPKLLIYKGGTLESGVPSRFSGSGSGTDFTLTISSLQPEDFATYYCQSTAGSSRSGNYGYVFGCGTKVTVLGGGGGSGGGGSGGGGSGGGGSQQLVESGGGLVQPGGSLRLSCAASGFSFTNNYYMCWVRQAPGKCLEWIACMLVGAWGNTYYASWANGRFTISKDNSKNTVYLQMNSLRAEDSAVYFCARARDYTWTLGGDPETSGFNLWGQGTLVKVSS
B4: PRO4672 (37-20-B03-based PDL1-BD), anti-CD47 x PDL1 x LILRB2, (scFv)2-Fc-(scFv)2 (trispecific antibody)
chain 1: DVQMTQSPSSLSASVGDRVTITCQASQSISSWVSWYQQKPGKPPKLLIYRGGYLESGVPSRFSASGSGTDFTLTISSLQPEDFATYYCQSTDSSTYGGAFGCGTKVTVLGGGGGSGGGGSGGGGSGGGGSQQVVESGGGLVQPGGSLRLSCAVSGIDLNSYAMTWVRQAPGKCLEWIGYIGSASSTYYASWASGRFTISKDNSKNTVYLQMNSLRAEDSAVYFCARGSTYINIWGQGTLVKVSSEPKSSDKTHTCPPCPAPELLGGPSVFLFPPKPKDTLMISRTPEVTCVVVDVSHEDPEVKFNWYVDGVEVHNAKTKPREEQYNSTYRVVSVLTVLHQDWLNGKEYKCKVSNKALPAPIEKTISKAKGQPREPQVYTLPPCREEMTKNQVSLSCAVKGFYPSDIAVEWESNGQPENNYKTTPPVLDSDGSFFLVSKLTVDKSRWQQGNVFSCSVMHEALHNHYTQKSLSLSPGKGGGGSGGGGSDVQMTQSPSSLSASVGDRVTITCQASQSIGSNLAWYQQKPGKPPKLLIYKGGTLESGVPSRFSGSGSGTDFTLTISSLQPEDFATYYCQSTAGSSRSGNYGYVFGCGTKVTVLGGGGGSGGGGSGGGGSGGGGSQQLVESGGGLVQPGGSLRLSCAASGFSFTNNYYMCWVRQAPGKCLEWIACMLVGAWGNTYYASWANGRFTISKDNSKNTVYLQMNSLRAEDSAVYFCARARDYTWTLGGDPETSGFNLWGQGTLVKVSS
chain 2: not shown
B5: PRO4687 (37-20-B03-based PDL1-BD), anti-CD47 x PDL1 x LILRB2 (trispecific antibody, human IgG1, kappa)
chain: DVQMTQSPSSLSASVGDRVTITCQASQSISSWVSWYQQKPGKPPKLLIYRGGYLESGVPSRFSASGSGTDFTLTISSLQPEDFATYYCQSTDSSTYGGAFGCGTKVTVLGGGGGSGGGGSGGGGSGGGGSQQVVESGGGLVQPGGSLRLSCAVSGIDLNSYAMTWVRQAPGKCLEWIGYIGSASSTYYASWASGRFTISKDNSKNTVYLQMNSLRAEDSAVYFCARGSTYINIWGQGTLVKVSSEPKSSDKTHTCPPCPAPELLGGPSVFLFPPKPKDTLMISRTPEVTCVVVDVSHEDPEVKFNWYVDGVEVHNAKTKPREEQYNSTYRVVSVLTVLHQDWLNGKEYKCKVSNKALPAPIEKTISKAKGQPREPQVYTLPPCREEMTKNQVSLSCAVKGFYPSDIAVEWESNGQPENNYKTTPPVLDSDGSFFLVSKLTVDKSRWQQGNVFSCSVMHEALHNHYTQKSLSLSPGKGGGGSGGGGSDVQMTQSPSSLSASVGDRVTITCQASQSIGSNLAWYQQKPGKPPKLLIYKGGTLESGVPSRFSGSGSGTDFTLTISSLQPEDFATYYCQSTAGSSRSGNYGYVFGCGTKVTVLGGGGGSGGGGSGGGGSGGGGSQQLVESGGGLVQPGGSLRLSCAASGFSFTNNYYMCWVRQAPGKCLEWIACMLVGAWGNTYYASWANGRFTISKDNSKNTVYLQMNSLRAEDSAVYFCARARDYTWTLGGDPETSGFNLWGQGTLVKVSS
heavy: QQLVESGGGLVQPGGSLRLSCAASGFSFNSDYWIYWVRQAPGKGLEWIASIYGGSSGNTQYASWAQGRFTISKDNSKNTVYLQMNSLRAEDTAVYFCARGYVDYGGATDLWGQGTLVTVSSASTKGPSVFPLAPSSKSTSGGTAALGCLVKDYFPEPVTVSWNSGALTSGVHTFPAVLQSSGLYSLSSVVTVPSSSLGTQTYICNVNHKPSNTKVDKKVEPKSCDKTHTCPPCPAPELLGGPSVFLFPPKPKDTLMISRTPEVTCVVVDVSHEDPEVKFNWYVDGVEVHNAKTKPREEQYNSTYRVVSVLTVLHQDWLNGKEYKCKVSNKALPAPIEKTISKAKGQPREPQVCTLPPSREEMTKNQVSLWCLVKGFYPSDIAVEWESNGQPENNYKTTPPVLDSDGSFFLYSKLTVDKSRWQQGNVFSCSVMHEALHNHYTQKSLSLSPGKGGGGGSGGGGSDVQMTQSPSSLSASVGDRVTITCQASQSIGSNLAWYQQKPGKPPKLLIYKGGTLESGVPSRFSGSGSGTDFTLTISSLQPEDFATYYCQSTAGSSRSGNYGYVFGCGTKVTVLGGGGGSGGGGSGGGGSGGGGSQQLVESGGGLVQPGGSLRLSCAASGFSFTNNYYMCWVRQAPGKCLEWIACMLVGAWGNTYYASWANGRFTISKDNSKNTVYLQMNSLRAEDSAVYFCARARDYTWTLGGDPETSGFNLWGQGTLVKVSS
light: DIQMTQSPSSLSASVGDRVTITCQASQSIGTYLAWYQQKPGKPPKLLIYRGGILASGVPSRFSGSGSGTDFTLTISSLQPEDFATYYCQSNFYSDSTTIGPNAFGQGTKVEIKRTVAAPSVFIFPPSDEQLKSGTASVVCLLNNFYPREAKVQWKVDNALQSGNSQESVTEQDSKDSTYSLSSTLTLSKADYEKHKVYACEVTHQGLSSPVTKSFNRGEC
B6: PRO5055 (PRO4687 with 33-03-G02-based PDL1-BD), anti-CD47 x PDL1 x LILRB2 (trispecific antibody, human IgG1, kappa)
chain: DVQMTQSPSSLSASVGDRVTITCQASQSISSWVSWYQQKPGKPPKLLIYRGGYLESGVPSRFSASGSGTDFTLTISSLQPEDFATYYCQSTDSSTYGGAFGCGTKVTVLGGGGGSGGGGSGGGGSGGGGSQQVVESGGGLVQPGGSLRLSCAVSGIDLNSYAMTWVRQAPGKCLEWIGYIGSASSTYYASWASGRFTISKDNSKNTVYLQMNSLRAEDSAVYFCARGSTYINIWGQGTLVKVSSEPKSSDKTHTCPPCPAPELLGGPSVFLFPPKPKDTLMISRTPEVTCVVVDVSHEDPEVKFNWYVDGVEVHNAKTKPREEQYNSTYRVVSVLTVLHQDWLNGKEYKCKVSNKALPAPIEKTISKAKGQPREPQVYTLPPCREEMTKNQVSLSCAVKGFYPSDIAVEWESNGQPENNYKTTPPVLDSDGSFFLVSKLTVDKSRWQQGNVFSCSVMHEALHNHYTQKSLSLSPGKGGGGSGGGGSDVQMTQSPSSLSASVGDRVTITCQASQSIGSNLAWYQQKPGKPPKLLIYKGGTLESGVPSRFSGSGSGTDFTLTISSLQPEDFATYYCQSTAGSSRSGNYGYVFGCGTKVTVLGGGGGSGGGGSGGGGSGGGGSQQLVESGGGLVQPGGSLRLSCAASGFSFTNNYYMCWVRQAPGKCLEWIACMLVGAWGNTYYASWANGRFTISKDNSKNTVYLQMNSLRAEDSAVYFCARARDYTWTLGGDPETSGFNLWGQGTLVKVSS
heavy: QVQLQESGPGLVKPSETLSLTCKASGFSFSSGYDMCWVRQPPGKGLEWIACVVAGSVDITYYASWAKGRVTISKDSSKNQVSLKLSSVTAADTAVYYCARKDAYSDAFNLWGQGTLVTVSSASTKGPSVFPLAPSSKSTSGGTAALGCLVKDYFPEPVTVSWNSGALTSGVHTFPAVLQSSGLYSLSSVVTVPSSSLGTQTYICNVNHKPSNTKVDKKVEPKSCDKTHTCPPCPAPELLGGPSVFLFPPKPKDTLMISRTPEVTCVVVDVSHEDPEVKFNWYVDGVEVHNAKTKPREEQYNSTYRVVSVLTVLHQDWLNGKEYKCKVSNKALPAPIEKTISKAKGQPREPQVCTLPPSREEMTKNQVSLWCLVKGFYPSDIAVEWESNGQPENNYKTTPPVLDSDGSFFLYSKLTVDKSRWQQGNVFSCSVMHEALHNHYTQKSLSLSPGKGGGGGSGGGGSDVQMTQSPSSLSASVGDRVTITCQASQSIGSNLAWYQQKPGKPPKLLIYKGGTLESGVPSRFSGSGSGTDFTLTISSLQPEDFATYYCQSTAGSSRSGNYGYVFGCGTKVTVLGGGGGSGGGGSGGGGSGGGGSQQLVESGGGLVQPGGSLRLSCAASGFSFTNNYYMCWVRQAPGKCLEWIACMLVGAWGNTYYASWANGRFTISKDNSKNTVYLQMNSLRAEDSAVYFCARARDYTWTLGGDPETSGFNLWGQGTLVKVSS
light: DIQMTQSPSSLSASVGDRVTITCQASQSINDYLAWYQQKPGKAPKLLIYKGGTLASGVPSRFSGSGSGTDFTLTISSLQPEDFATYYCQQGYIITDIDNVFGQGTKVEIKRTVAAPSVFIFPPSDEQLKSGTASVVCLLNNFYPREAKVQWKVDNALQSGNSQESVTEQDSKDSTYSLSSTLTLSKADYEKHKVYACEVTHQGLSSPVTKSFNRGEC
B7: PRO5052 (PRO4672 with 33-03-G02-based PDL1-BD), anti-CD47 x PDL1 x LILRB2, (scFv)2-Fc-(scFv)2 (trispecific antibody)
chain 1: DVQMTQSPSSLSASVGDRVTITCQASQSISSWVSWYQQKPGKPPKLLIYRGGYLESGVPSRFSASGSGTDFTLTISSLQPEDFATYYCQSTDSSTYGGAFGCGTKVTVLGGGGGSGGGGSGGGGSGGGGSQQVVESGGGLVQPGGSLRLSCAVSGIDLNSYAMTWVRQAPGKCLEWIGYIGSASSTYYASWASGRFTISKDNSKNTVYLQMNSLRAEDSAVYFCARGSTYINIWGQGTLVKVSSEPKSSDKTHTCPPCPAPELLGGPSVFLFPPKPKDTLMISRTPEVTCVVVDVSHEDPEVKFNWYVDGVEVHNAKTKPREEQYNSTYRVVSVLTVLHQDWLNGKEYKCKVSNKALPAPIEKTISKAKGQPREPQVYTLPPCREEMTKNQVSLSCAVKGFYPSDIAVEWESNGQPENNYKTTPPVLDSDGSFFLVSKLTVDKSRWQQGNVFSCSVMHEALHNHYTQKSLSLSPGKGGGGSGGGGSDVQMTQSPSSLSASVGDRVTITCQASQSIGSNLAWYQQKPGKPPKLLIYKGGTLESGVPSRFSGSGSGTDFTLTISSLQPEDFATYYCQSTAGSSRSGNYGYVFGCGTKVTVLGGGGGSGGGGSGGGGSGGGGSQQLVESGGGLVQPGGSLRLSCAASGFSFTNNYYMCWVRQAPGKCLEWIACMLVGAWGNTYYASWANGRFTISKDNSKNTVYLQMNSLRAEDSAVYFCARARDYTWTLGGDPETSGFNLWGQGTLVKVSS
chain 2: not shown
B8: PRO4710 (IgG4 of scFv PRO3744, 68-18-E11-sc07) (antibody, V domains shown)
VH: QQLVESGGGLVQPGGSLRLSCAASGFSFTNNYYMCWVRQAPGKGLEWIACMLVGAWGNTYYASWANGRFTISKDNSKNTVYLQMNSLRAEDTAVYFCARARDYTWTLGGDPETSGFNLWGQGTLVTVSS
VL: DVQMTQSPSSLSASVGDRVTITCQASQSIGSNLAWYQQKPGKPPKLLIYKGGTLESGVPSRFSGSGSGTDFTLTISSLQPEDFATYYCQSTAGSSRSGNYGYVFGQGTKVEIKR

These binders were tested against T1, LILRB2 on human monocyte-derived macrophages (HMDM) (human, UniProt Q8N423 22-597) (assay: cell-based or functional assay).
T1 sequence (Q8N423 22-597): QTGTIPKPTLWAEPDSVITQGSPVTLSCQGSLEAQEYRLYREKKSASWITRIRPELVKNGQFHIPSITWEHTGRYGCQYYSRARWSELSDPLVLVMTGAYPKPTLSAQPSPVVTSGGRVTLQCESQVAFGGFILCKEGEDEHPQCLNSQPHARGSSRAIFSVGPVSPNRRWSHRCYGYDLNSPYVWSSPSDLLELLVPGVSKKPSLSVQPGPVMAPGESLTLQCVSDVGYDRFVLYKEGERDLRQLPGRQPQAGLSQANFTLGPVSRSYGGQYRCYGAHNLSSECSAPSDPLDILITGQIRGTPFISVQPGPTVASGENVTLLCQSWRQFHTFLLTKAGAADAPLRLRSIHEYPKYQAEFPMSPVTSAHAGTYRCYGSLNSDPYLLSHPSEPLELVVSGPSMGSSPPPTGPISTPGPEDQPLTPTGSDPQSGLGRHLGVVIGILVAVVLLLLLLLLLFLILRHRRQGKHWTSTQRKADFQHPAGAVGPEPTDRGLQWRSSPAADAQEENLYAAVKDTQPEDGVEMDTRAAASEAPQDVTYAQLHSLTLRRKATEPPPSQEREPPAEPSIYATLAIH

Question: With B1 as the binder, how does the “CD86 EC50 [nM], re-polarization of M2 macrophages” value read?
Answer: Its value is 0.243 nM.

Question: And the “CD163 EC50 [nM], re-polarization of M2 macrophages” value?
Answer: The value was 0.371 nM.

Question: And the “CD206 EC50 [nM], re-polarization of M2 macrophages” value?
Answer: Its value is 0.587 nM.

Question: What about the “IL-1β EC50 [nM], LPS-driven cytokine secretion by HMDM” value (“IL-1β EC50 [nM]” below) of the same binder?
Answer: The value was 0.446 nM.

Question: What about the “IL-6 EC50 [nM], LPS-driven cytokine secretion by HMDM” value (“IL-6 EC50 [nM]” for short) of the same binder?
Answer: Its value is 0.804 nM.

Question: And the “TNF-α EC50 [nM], LPS-driven cytokine secretion by HMDM” value (“TNF-α EC50 [nM]” for short)?
Answer: Its value is 0.891 nM.

Question: What does the source list for B2?
Answer: CD86 EC50 [nM], re-polarization of M2 macrophages: 0.214 nM; CD163 EC50 [nM], re-polarization of M2 macrophages: 0.173 nM; CD206 EC50 [nM], re-polarization of M2 macrophages: 0.512 nM; IL-1β EC50 [nM], LPS-driven cytokine secretion by HMDM: 0.279 nM; IL-6 EC50 [nM], LPS-driven cytokine secretion by HMDM: 0.45 nM; TNF-α EC50 [nM], LPS-driven cytokine secretion by HMDM: 2.2 nM

Question: How did the “CD86 EC50 [nM], re-polarization of M2 macrophages” value turn out when B3 was run?
Answer: The value was 0.117 nM.

Question: What about the “CD163 EC50 [nM], re-polarization of M2 macrophages” value of the same binder?
Answer: The value was 0.107 nM.

Question: What about the “CD206 EC50 [nM], re-polarization of M2 macrophages” value of the same binder?
Answer: Its value is 0.136 nM.

Question: What about the “IL-1β EC50 [nM]” value of the same binder?
Answer: The value was 0.779 nM.

Question: And the “IL-6 EC50 [nM]” value?
Answer: Its value is 0.803 nM.

Question: What about the “TNF-α EC50 [nM]” value of the same binder?
Answer: The value was 1.1 nM.

Molecular target: T1, LILRB2 on human monocyte-derived …
Experiment: cell-based or functional assay
Remark: another data set of the same source

Question: With B4 as the binder, how does the “IL-1β EC50 [nM]” value read?
Answer: The value was 0.096 nM.

Question: What about the “IL-6 EC50 [nM]” value of the same binder?
Answer: The value was 0.078 nM.

Question: What about the “TNF-α EC50 [nM]” value of the same binder?
Answer: Its value is 0.123 nM.

Question: Which “IL-1β EC50 [nM]” value does the source give for B5 here?
Answer: The value was 0.205 nM.

Question: What about the “IL-6 EC50 [nM]” value of the same binder?
Answer: Its value is 0.097 nM.

Question: And the “TNF-α EC50 [nM]” value?
Answer: Its value is 0.175 nM.

Question: For B6, which “IL-1β EC50 [nM]” value is on record?
Answer: Its value is 0.0705 nM.

Question: And the “IL-6 EC50 [nM]” value?
Answer: Its value is 0.063 nM.

Question: And the “TNF-α EC50 [nM]” value?
Answer: Its value is 0.141 nM.

Question: B7 was tested. Which “IL-1β EC50 [nM]” value did it give?
Answer: Its value is 0.082 nM.

Question: And the “IL-6 EC50 [nM]” value?
Answer: The value was 0.077 nM.

Question: What about the “TNF-α EC50 [nM]” value of the same binder?
Answer: Its value is 0.117 nM.

Question: For B8, which “IL-1β EC50 [nM]” value is on record?
Answer: Its value is 0.248 nM.

Question: What about the “IL-6 EC50 [nM]” value of the same binder?
Answer: Its value is 0.153 nM.

Question: What about the “TNF-α EC50 [nM]” value of the same binder?
Answer: The value was 0.169 nM.
